Results: article PMC2266796

Legend:
Assay in all cases: SEC-MALS; 100 ug purified Strep-tagged PfPdx1 on Superdex 200 10/30 with static light scattering (miniDAWN Tristar); 100 mM Tris-HCl pH 8.0, 150 mM NaCl, no amino acid added
[1] = target: PfPdx1 D26A (P. falciparum) (UniProt C6KT50)
[2] = target: PfPdx1 ERR (E136A/R139A/R140A) triple mutant (P. falciparum) (UniProt C6KT50)
[3] = target: PfPdx1 K83A (P. falciparum) (UniProt C6KT50)

## PfPdx1 D26A (from UniProt C6KT50 1-301) (enzyme)
[1]
  stoichiometry N: 12

## PfPdx1 ERR (E136A/R139A/R140A) triple mutant (from UniProt C6KT50 1-301) (enzyme)
[2]
  stoichiometry N: 12

## PfPdx1 K83A (from UniProt C6KT50 1-301) (enzyme)
[3]
  stoichiometry N: 12
